B1: HPK1 kinase domain (KD TSEE WT) [not stated] / HPK1 intact citron homology domain fragment (C428-E821), untagged [not stated] (parent)
chain 1: CASGPPPNSPRPGPPPSTSSPHLTAHSEPSLWNPPSRELDKPPLLPPKKEKMKRKGCALLVKLFNGCPLRIHSTAAWTHPSTKDQHLLLGAEEGIFILNRNDQEATLEMLFPSRTTWVYSINNVLMSLSGKTPHLYSHSILGLLERKETRAGNPIAHISPHRLLARKNMVSTKIQDTKGCRACCVAEGASSGGPFLCGALETSVVLLQWYQPMNKFLLVRQVLFPLPTPLSVFALLTGPGSELPAVCIGVSPGRPGKSVLFHTVRFGALSCWLGEMSTEHRGPVQVTQVEEDMVMVLMDGSVKLVTPEGSPVRGLRTPEIPMTEAVEAVAMVGGQLQAFWKHGVQVWALGSDQLLQELRDPTLTFRLLGSPRPVVVETRPVDDPTAPSNLYIQE
chain 2: DVVDPDIFNRDPRDHYDLLQRLGGGTYGEVFKARDKVSGDLVALKMVKMEPDDDVSTLQKEILILKTCRHANIVAYHGSYLWLQKLWICMEFCGAGSLQDIYQVTGSLSELQISYVCREVLQGLAYLHSQKKIHRDIKGANILINDAGEVRLADFGISAQIGAELARRLEFIGTPYWMAPEVAAVALKGGYNELCDIWSLGITAIELAELQPPLFDVHPLRVLFLMTKSGYQPPRLKEKGKWSAAFHNFIKVTLTKSPKKRPSATKMLSHQLVSQPGLNRGLILDLLDKLKN

Variants of: B1
Assay: SPR
Settings: with HPK1 intact citron homology domain fragment (C428-E821), left plot, plateau of the last (highest) of five successive CHD injections, about 800-900 s, CHD concentrations not given, parent: 30, read off a plot

Variant | response (Response Units)
chain 2 DVVDPDIFNRDPRDHYDLLQRLGGGTYGEVFKARDKVSGDLVALKMVKMEPDDDVSTLQKEILILKTCRHANIVAYHGSYLWLQKLWICMEFCGAGSLQDIYQVTGSLSELQISYVCREVLQGLAYLHSQKKIHRDIKGANILINDAGEVRLADFGISAQIGAELARRLEFIGTPYWMAPEVAAVALKGGYNELCDIWSLGITAIELAELQPPLFDVHPKRVLFLMTKSGYQPPRLKEKGKWSAAFHNFIKVTLTKSPKKRPSATKMLSHQLVSQPGLNRGLILDLLDKLKN [chain 2 L220K] | 43
